Measurements from FireProtDB (doi:10.1021/acs.biochem.7b01284).

Details: Methanothermobacter thermautotrophicus (strain ATCC 29096 / DSM 1053 / JCM 10044 / NBRC 100330 / Delta H); pH 7.5; Thermal; DSC; potassium phosphate buffer; reversible: no; whole UniProt chain shown

B1: Geranylgeranylglyceryl phosphate synthase wild type, O26652 (protein)
chain: MKVEDYFHDILRERKIHLTLIDPEEQTPEEAVEIARAAIRGGTDGIMLGGSTTDSSELDNTARALRENIDVPIILFPGNTTGVSRYADAIFFMSLLNSTNPYWIIGAQALGAATVKKMGIEALPMGYLVVEPGGTVGWVGDTKPVPRNKPDIAAAYAMAAEFLGMRLFYLEAGSGAPEHVPEEMIALVKRCTDQILIVGGGIRSGEDAARVAGAGADVVVTGTVVENSDNVEDKIREIVEGMGSV
- unfolding enthalpy (calorimetric): 389 kcal/mol
